Measurements: US20050048634

Molecular target: oligo-nucleosomes purified from HeLa cells or chicken blood cells

B1: hDOT1L(1-416) (protein)
chain: MGEKLELRLKSPVGAEPAVYPWPLPVYDKHHDAAHEIIETIRWVCEEIPDLKLAMENYVLIDYDTKSFESMQRLCDKYNRAIDSIHQLWKGTTQPMKLNTRPSTGLLRHILQQVYNHSVTDPEKLNNYEPFSPEVYGETSFDLVAQMIDEIKMTDDDLFVDLGSGVGQVVLQVAAATNCKHHYGVEKADIPAKYAETMDREFRKWMKWYGKKHAEYTLERGDFLSEEWRERIANTSVIFVNNFAFGPEVDHQLKERFANMKEGGRIVSSKPFAPLNFRINSRNLSDIGTIMRVVELSPLKGSVSWTGKPVSYYLHTIDRTILENYFSSLKNPKLREEQEAARRRQQRESKSNAATPTKGPEGKVAGPADAPMDSGAEEEKAGAATVKKPSPSKARKKKLNKKGRKMAGRKRGRPKK
  HMTase activity in the presence of increasing concentrations (1.5, 15, 150 uM) of the competitor peptide C-RS10 (SEQ ID NO:20): effectively competed with increasing concentrations of the peptide

B2: hDOT1L(1-416) Δ(376-390) (protein)
chain: MGEKLELRLKSPVGAEPAVYPWPLPVYDKHHDAAHEIIETIRWVCEEIPDLKLAMENYVLIDYDTKSFESMQRLCDKYNRAIDSIHQLWKGTTQPMKLNTRPSTGLLRHILQQVYNHSVTDPEKLNNYEPFSPEVYGETSFDLVAQMIDEIKMTDDDLFVDLGSGVGQVVLQVAAATNCKHHYGVEKADIPAKYAETMDREFRKWMKWYGKKHAEYTLERGDFLSEEWRERIANTSVIFVNNFAFGPEVDHQLKERFANMKEGGRIVSSKPFAPLNFRINSRNLSDIGTIMRVVELSPLKGSVSWTGKPVSYYLHTIDRTILENYFSSLKNPKLREEQEAARRRQQRESKSNAATPTKGPEGKVAGPADAPMDSGPSKARKKKLNKKGRKMAGRKRGRPKK
  HMTase activity in the presence of increasing concentrations (1.5, 15, 150 uM) of the competitor peptide C-RS10 (SEQ ID NO:20): effectively competed with increasing concentrations of the peptide
